The values below come from patent publication US20260115256A1 (HANGZHOU SCIWIND BIOSCIENCES, published 2026).

*1 amine or outer side, *2 acyl side, *3 side chain or, on linkers, in order; H or OH if unused. Bridges are numbered along the chain shown (N, C = ends). Primed or numbered codes have the meaning given here. Where no end group is shown, it is not given here. Side-chain parts run from the residue outwards. [ ]: non-standard residue; d: D form. The star is where a group is joined. C20 diacid = O=C(O)CCCCCCCCCCCCCCCCCCC(=O)*; γGlu = O=C(O)[C@H](CCC(=O)[*:2])N[*:1]; βAsp = O=C(O)[C@H](CC(=O)[*:2])N[*:1]; Hyp = O=C(O)[C@@H]1C[C@@H](O)CN1; Cit = NC(=O)NCCC[C@H](N)C(=O)O; Orn = NCCC[C@H](N)C(=O)O; Dab = NCC[C@H](N)C(=O)O; Inp′ = not defined here; Trx′ = not defined here; AOC = not defined here; Dap = NC[C@H](N)C(=O)O; PEG = not defined here; AEEA = NCCOCCOCC(=O)O; Sar = CNCC(=O)O

The target in this assay is T1, human amylin receptor (AMY3) on CHO-K1/Ga15/AMY3 cells (human, UniProt P30988 25-474; O60896 24-148).
T1 sequence (looked up) 1: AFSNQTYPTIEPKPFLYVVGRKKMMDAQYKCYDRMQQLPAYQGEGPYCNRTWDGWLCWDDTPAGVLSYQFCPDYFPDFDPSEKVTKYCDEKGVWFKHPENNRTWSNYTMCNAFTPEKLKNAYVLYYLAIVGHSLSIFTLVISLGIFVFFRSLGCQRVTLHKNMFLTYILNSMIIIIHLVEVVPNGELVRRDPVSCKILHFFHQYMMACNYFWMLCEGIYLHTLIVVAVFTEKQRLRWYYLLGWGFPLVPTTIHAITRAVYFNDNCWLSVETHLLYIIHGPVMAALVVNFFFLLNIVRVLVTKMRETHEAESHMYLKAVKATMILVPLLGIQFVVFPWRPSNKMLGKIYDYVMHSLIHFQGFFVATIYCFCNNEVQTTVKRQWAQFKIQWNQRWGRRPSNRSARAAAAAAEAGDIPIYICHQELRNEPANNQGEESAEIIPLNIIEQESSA
T1 sequence (looked up) 2: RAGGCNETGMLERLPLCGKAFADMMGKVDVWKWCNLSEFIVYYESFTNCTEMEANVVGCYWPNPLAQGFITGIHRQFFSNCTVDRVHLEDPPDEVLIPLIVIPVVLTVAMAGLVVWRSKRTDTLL
Nature of the assay: cell-based or functional assay.

Consider {C20 diacid-Inp′-AEEA-AEEA}-KCNTATCATQRLADFLRHSSNNLKPILPPTNVGSNT[Hyp]-NH2 (disulfide 2-7 (inferred)) [PD179], for which the “EC50, CRE-luciferase assay” value is 0.017 nM. The same measure for {C20 diacid-γGlu}-KCNTATCATQRLADFLRHSSNNL[Dab]PILPPTNVGSNTP-NH2 (disulfide 2-7 (inferred)) [PD169]: 0.039 nM. The same measure for {C20 diacid-γGlu}-KCNTATCATQRLADFLRHSSNNL[aK]PILPPTNVGSNTP-NH2 (disulfide 2-7 (inferred)) [PD167]: 0.05 nM.

B1: PD189 (peptide)
peptide: {C20 diacid-Trx′-AEEA-AEEA}-KCNTATCATQRLADFLRHSSNNLKPILPPTNVGSNTP-NH2
modifications: disulfide 2-7 (inferred); reading uncertain; also: printed as N-terminal: 2*AEEA + Trx + C20 diacid; C-terminal NH2
Regarding B1, the “EC50, CRE-luciferase assay” value is 0.029 nM. {C20 diacid-γGlu}-KCNTATCATQRLADFLRHSSNNLRPILPPTNVGSNTP-NH2 (disulfide 2-7 (inferred)) [PD161]: the “EC50, CRE-luciferase assay” value was 0.026 nM. As to {C20 diacid-γGlu}-KCNTATCATQRLADFLRHSSNNLHPILPPTNVGSNTP-NH2 (disulfide 2-7 (inferred)) [PD162], the “EC50, CRE-luciferase assay” value came to 0.035 nM. The same measure for {C20 diacid-γGlu}-KCNTATCATQRLADFLRHSSNNLDPILPPTNVGSNTP-NH2 (disulfide 2-7 (inferred)) [PD164]: 0.111 nM; for {C20 diacid-AEEA-AEEA-Trx′}-KCNTATCATQRLADFLRHSSNNLKPILPPTNVGSNT[Hyp]-NH2 (disulfide 2-7 (inferred); reading uncertain) [PD178]: 0.017 nM. With {C20 diacid-γGlu}-KCNTATCATQRLADFLRHSSNNL[AOC]PILPPTNVGSNTP-NH2 (disulfide 2-7 (inferred); reading uncertain) [PD174], the “EC50, CRE-luciferase assay” value came to 0.046 nM.

Turning to {C20 diacid-AEEA-AEEA}-DKCNTATCATQRLADFLRHSSNNLKPILPPTNVGSNT[Hyp]-NH2 (disulfide 3-8 (inferred)) [PD182], the “EC50, CRE-luciferase assay” value came out at 0.034 nM.

On to RCNTATCATQRLAEFLRHSSK([AEEA-AEEA-γGlu-C20 diacid])NLGPILPPTNVGSNTP-NH2 (disulfide 2-7 (inferred)) [PD001], for which the “EC50, CRE-luciferase assay” value was determined as 0.042 nM. For {C20 diacid-γGlu}-KCNTATCATQRLADFLRHSSNNL[Orn]PILPPTNVGSNTP-NH2 (disulfide 2-7 (inferred)) [PD170] the value was 0.041 nM.

Take {C20 diacid}-D[AEEA][AEEA]KCNTATCATQRLADFLRHSSNNLKPILPPTNVGSNT[Hyp]-NH2 (disulfide 5-10 (inferred)) [PD181]: the “EC50, CRE-luciferase assay” value amounted to 0.022 nM. For {C20 diacid-PEG-PEG-PEG-PEG-PEG-PEG-PEG-PEG-γGlu}-KCNTATCATQRLADFLRHSSNNLKPILPPTNVGSNT[Hyp]-NH2 (disulfide 2-7 (inferred); reading uncertain) [PD186] the value was 0.052 nM. For {C20 diacid-γGlu}-KCNTATCATQRLADFLRHSSNNLKPILPPTNVGSNTP-NH2 (disulfide 2-7 (inferred)) [PD160] the value was 0.035 nM; for {C20 diacid-Trx′-AEEA-AEEA}-KCNTATCATQRLADFLRHSSNNLKPILPPTNVGSNT[Hyp]-NH2 (disulfide 2-7 (inferred); reading uncertain) [PD177], 0.024 nM; for {C20 diacid-AEEA-AEEA-γGlu}-KCNTATCATQRLADFLRHSSNNLKPILPPTNVGSNT[Hyp]-NH2 (disulfide 2-7 (inferred)) [PD176], 0.029 nM. For {C20 diacid-γGlu}-KCNTATCATQRLADFLRHSSNNLSPILPPTNVGSNTP-NH2 (disulfide 2-7 (inferred)) [PD166] the value was 0.054 nM; for {C20 diacid-γGlu}-KCNTATCATQRLADFLRHSSNNLNPILPPTNVGSNTP-NH2 (disulfide 2-7 (inferred)) [PD165], 0.05 nM. In the case of {C20 diacid-γGlu}-KCNTATCATQRLADFLRHSSNNL[Dap]PILPPTNVGSNTP-NH2 (disulfide 2-7 (inferred)) [PD168], the “EC50, CRE-luciferase assay” value stood at 0.041 nM. The same measure for {C20 diacid-γGlu}-KCNTATCATQRLADFLRHSSNNL[Sar]PILPPTNVGSNTP-NH2 (disulfide 2-7 (inferred)) [PD172]: 0.075 nM; for {C20 diacid-AEEA-AEEA-γGlu}-KCNTATCATQRLADFLRHSSNNLKPILPPTNVGSNTP-NH2 (disulfide 2-7 (inferred)) [PD188]: 0.025 nM.

With {C20 diacid-γGlu}-KCNTATCATQRLADFLRHSSNNLPPILPPTNVGSNTP-NH2 (disulfide 2-7 (inferred)) [PD163], the “EC50, CRE-luciferase assay” value was determined as 0.084 nM.

B2: PD187 (peptide)
peptide: {C20 diacid-AEEA-AEEA}-KCNTATCATQRLADFLRHSSNNLKPILPPTNVGSNTX-NH2
modifications: disulfide 2-7 (inferred); not fully specified (residue 37); printed as KCNTATCATQRLADFLRHSSNNLKPILPPTNVGSNT-trans-Hyp-NH2
B2: the “EC50, CRE-luciferase assay” value is 0.016 nM. In the case of {C20 diacid-AEEA-AEEA-βAsp}-KCNTATCATQRLADFLRHSSNNLKPILPPTNVGSNT[Hyp]-NH2 (disulfide 2-7 (inferred)) [PD184], the “EC50, CRE-luciferase assay” value is 0.037 nM. For RCNTATCATQRLAEFLRHSSNNLK([γGlu-C20 diacid])PILPPTNVGSGT[Hyp]-NH2 (disulfide 2-7 (inferred)) [PD041] the value was 0.259 nM; for {C20 diacid-βAsp-AEEA-AEEA}-KCNTATCATQRLADFLRHSSNNLKPILPPTNVGSNT[Hyp]-NH2 (disulfide 2-7 (inferred)) [PD183], 0.04 nM. For RCNTATCATQRLADFLRHSSNNLK([γGlu-C20 diacid])PILPPTNVGSNTP-NH2 (disulfide 2-7 (inferred)) [PD042] the value was 0.111 nM; for {C20 diacid-AEEA-AEEA-Inp′}-KCNTATCATQRLADFLRHSSNNLKPILPPTNVGSNT[Hyp]-NH2 (disulfide 2-7 (inferred)) [PD180], 0.016 nM.

B3: PD190 (peptide)
peptide: {C20 diacid-AEEA-AEEA-Trx′}-KCNTATCATQRLADFLRHSSNNLKPILPPTNVGSNTP-NH2
modifications: disulfide 2-7 (inferred); reading uncertain; also: printed as N-terminal: Trx + 2*AEEA + C20 diacid; C-terminal NH2
As for B3, the “EC50, CRE-luciferase assay” value was determined as 0.017 nM.

{C20 diacid-γGlu}-KCNTATCATQRLADFLRHSSNNL[Cit]PILPPTNVGSNTP-NH2 (disulfide 2-7 (inferred)) [PD171]: the “EC50, CRE-luciferase assay” value is 0.053 nM.

For {C20 diacid-γGlu}-KCNTATCATQRLADFLRHSSNNL[Trx′]PILPPTNVGSNTP-NH2 (disulfide 2-7 (inferred); reading uncertain) [PD173], the “EC50, CRE-luciferase assay” value came to 0.064 nM.
